From patent US7193044B1, “Compounds and methods for regulating apoptosis, and methods of making and screening for compounds that regulate apoptosis” (Immunogen, Inc., priority 2000, dated 2007) come the findings set out here.

The test system of experiment [1] is BAD phosphorylation in COS-7 cells. Description: BAD phosphorylation in COS-7 cells (western blot band-shift). Format: cell-based. As to conditions: anti-HA western blot. From the text: Mouse FL5.12 cells were then transfected with the expression vector encoding the shorter murine BAD of SEQ ID NO:3 or one of the three BAD mutants. Total mRNA was isolated from the transfected FL5.12 cells, and reverse transcribed into cDNA. The cDNA was then subcloned into the expression vector pcDNA3 so that the amino acid sequence of the BAD or mutant BAD, encoded by the subcloned cDNA, was in-frame and operably linked to an N-terminal hemagglutinin (“HA”) epitope encoded by the expression vector. The expression vectors encoding the HA-tagged shorter murine BAD and mutant BAD were expressed in COS-7 cells. Whole cell lysates (“WCL”) were then prepared from the COS-7 cells expressing the polypeptides. The phosphorylation of the shorter murine BAD of SEQ ID NO:3 and mutant BAD were detected by a western blot of the WCL, probed with an anti-HA antibody (“anti-HA antibody”). […] Of note, each of the BAD mutants resolved as a doublet on a 16% SDS-PAGE, even though in the amino acid sequence of each of the BAD mutants one or both of the serines corresponding to Ser112 and Ser136 were mutated, i.e., substituted with alanine. […]
On the technique in general: A western blot detects proteins with antibodies after separation by electrophoresis.

In experiment [2] the test system is BAD Ser155 phosphorylation in HeLa cells. Description: BAD phosphorylation in HeLa cells (western blot band-shift / anti-phospho-Ser155 antibody). Conditions: HeLa cells. Format: cell-based, human. As for the experimental part:
A mammalian expression vector encoding mutant HA-BAD S155A, derived from the shorter murine BAD of SEQ ID NO:3, was constructed. HA-BAD S155A has an amino acid sequence wherein the serine at a position corresponding to Ser155 is substituted with alanine. A western blot was performed on WCL prepared from cells expressing the shorter murine BAD (SEQ ID NO:3), HA-BAD S112A, HA-BAD S136A, or HA-BAD S155A, and probed with anti-HA antibody.
A western blot analysis, probed with anti-HA antibody, was performed on lysates produced from the Forskolin treated and untreated (control) cells to determine whether Forskolin could induce the phosphorylation BAD or mutant BAD.
HeLa cells transiently expressing HA-BAD, HA-BAD S155A, HA-BAD S112A/S136A, or HA-BAD S112A/S136A/S155A were treated with Forskolin or a buffer control.
The HA-BAD S112A/S136A double mutant was transiently expressed in HeLa cells, and transfected cell cultures were treated with each of the GPCR ligands, individually and as a group. A western blot analysis, probed with anti-HA antibody, was performed on lysates produced from the treated and untreated (negative control) cells. […] Forskolin (FK) and no treatment (−) were positive and negative controls, respectively (FIG. 6(a), […], respectively).
Non-transfected HeLa cells were treated with Forskolin or L-epinephrine, followed by western blot analysis of cell lysates using anti-BAD antibodies.
Transformants were treated with L-epinephrine, then lysed and subjected to anti-HA western blot analysis.
To further test whether phosphorylation of Ser155 is dependent on the PI 3-kinase/Akt pathway, HeLa cells were transfected with the mutant HA-BAD S155A and pretreated with Wortmannin, an inhibitor of PI 3-kinase. These cells were then stimulated with epidermal growth factor (EGF), lysed and analyzed by western blot analysis.
For immunoprecipitation of all HA-BAD species, 1 μg of the anti-HA antibody was added to the cell lysates, and incubated at 4° C. for one hour. Protein G agarose (Pierce) was then added (50 μl/fraction of 50% slurry) and followed by a one hour incubation at 4° C. Beads were washed with RIPA buffer, boiled in loading buffer (2% SDS, 10% glycerol, 5% β-ME, 60 mM Tris, pH 6.8, 0.002% Bromophenol Blue) and loaded onto polyacrylamide gels. After electrophoresis, proteins were transferred to nitrocellulose membranes, and blots blocked in western wash buffer (40 mM Tris, pH 8.0, 150 mM NaCl, 0.2% NP-40) with 5% BSA for one hour at room temperature. Blots were incubated with primary antibody diluted in western wash buffer with 3% BSA at room temperature for 1–2 hours, washed with western wash buffer and incubated with secondary HRP-coupled antibody diluted in western wash buffer with 1.5% BSA, and washed extensively. Polypeptides were detected with the ECL chemiluminescence according to the manufacturers instructions (Amersham).

Experiment [3] relates to HeLa cells. Description: Beta-gal ELISA apoptosis assay in transfected HeLa cells. It counts as cell-based, human. Conditions: HeLa cells, 24 hours post-transfection. As for the experimental part: Because BAD Ser155 phosphorylation, like Ser136 phosphorylation, prevents BAD from binding to Bcl-XL (FIG. 1), it was possible that by analogy, Ser155 dephosphorylation promotes cell death. To test this idea, HeLa cells were co-transfected with BAD or various BAD serine mutants and a β-gal reporter plasmid. Twenty-four hours post-transfection, cell viability was analyzed by β-gal ELISA.
To test this idea, HeLa cells were again co-transfected with BAD or various BAD serine mutants and a β-gal reporter plasmid. Forskolin was then added to half of the cultures while the other half was left untreated. Beta-gal ELISAs were performed 24 hours post transfection. […] Thus, phosphorylation of Ser155 rescues cells from BAD-induced apoptosis, while substitution of Ser155 with a nonphosphorylatable residue results in increased cell death and the failure of cells to be protected from induced PKA activity.
Beta-gal ELISA assays were performed using the β-gal ELISA system from Boehringer Mannheim, according to manufacture's instructions. Cells were transfected with BAD (or BAD mutant) and β-gal in a ratio of 5:1. The transfected cells were trypsinized and distributed into 96-well tissue culture plates. Twenty-four hours after transfection, cell extracts were obtained by lysing the cells in lysis buffer. Cell extracts (200 μl) were then added to anti-β-gal-coated microtiter plates (MTP). The MTPs were foil-covered and incubated for one hour at 37° C. Solutions were then decanted and the MTPs were washed, followed by the addition of 200 μl of anti-β-gal-DIG working solution, and incubation for an additional hour as described above. Solutions were again decanted, the MTPs washed and 200 μl of DIG-POD working solution were added. The MTPs were incubated for another hour at 37° C., the solution decanted, and the wells washed. 200 μl of substrate with enhancer were added to each well and incubated at room temperature until color development. The β-gal activity was measured by the absorbance of the sample at […]. Data were based on triplicate wells with standard deviations calculated.

Experiment [4] concerns HeLa cells. Kind of experiment: Fluorescence-based beta-galactosidase assay of BAD-induced cell death in transfected HeLa cells. Details: species or system human. As to conditions: compared to wild-type BAD. How it is done: FIG. 12(B) is a graphic representation of the results of a β-galactosidase assay. HeLa cells were co-transfected with the β-galactosidase gene and either HA-BAD (“WT”), HA-BAD S155A (“S155A”), HA-BAD S112A/S136A (“S112A/S136A”) or HA-BAD S112A/S136A/S155A (“AAA”). Transfected cells were then cultured in serum-free medium (SFM) or SFM supplemented with EGF (SFM+EGF) for 12 hours. Cell lysates were prepared and BAD-induced cell death was measured by the loss of β-galactosidase activity in a fluorescence-based assay. Fluorescence was measured at 465 nm. Results shown are the average and standard deviation of triplicate transfections (this experiment was repeated two more times with similar results). Expression levels of HA-tagged BAD and BAD mutants in transfected cell lysates were detected by anti-HA western blot analysis: HA-BAD (“WT”), HA-BAD S155A (“A”), HA-BAD S112A/S136A (“AA”), and HA-BAD S112A/S136A/S155A (“AAA”).
FIG. 12(C) is a graphic representation of the results of a β-galactosidase assay. HeLa cells were co-transfected with the β-galactosidase gene and either an empty vector (“CTL”), wild-type BAD (“WT”), the BAD S155A mutant (“S155A”) or the BAD S155D mutant (“S155D”). Cell lysates were prepared and BAD-induced cell death was measured by the loss of β-galactosidase activity in a fluorescence-based assay. Fluorescence was measured at 465 nm. Results shown are the average and standard deviation of triplicate transfections (this experiment was repeated two more times with similar results).
HeLa cells were co-transfected with the β-galactosidase gene and either wild-type BAD, BAD S155A, BAD S112A/S136A or BAD S112A/S136A/S155A. […] Cell lysates were prepared and BAD-induced cell death was measured by the loss of β-galactosidase activity in a fluorescence-based assay. […]
To measure β-gal activity, HeLa cells were plated in 12-well plates at 5×10^4 cells/well one day prior to transfection. […] Beta-gal activity was measured in extracts using a fluorogenic substrate (MUG, BIO-RAD FluorAce™ β-gal Reporter Assay, #170–3150). […]

B1: HA-BAD S112A/S134A/S136A: HA-tagged mutant of shorter murine BAD, serines corresponding to Ser112, Ser134 and Ser136 substituted with alanine (protein, UniProt Q61337 1-204, looked up, variant S112A S134A S136A)
Bcl2-associated agonist of …: MGTPKQPSLAPAHALGLRKSDPGIRSLGSDAGGRRWRPAAQSMFQIPEFEPSEQEDASATDRGLGPSLTEDQPGPYLAPGLLGSNIHQQGRAATNSHHGGAGAMETRSRHSAYPAGTEEDEGMEEELSPFRGRARAAPPNLWAAQRYGRELRRMSDEFEGSFKGLPRPKSAGTATQMRQSAGWTRIIQSWWDRNLGKGGSTPSQ
modifications: HA tag
notes: HA-tagged mutant of shorter murine BAD, serines corresponding to Ser112, Ser134 and Ser136 substituted with alanine
For the molecule B1, the “phosphorylation of expressed BAD mutant (lambda phosphatase-sensitive higher molecular weight band)” value in experiment [1] was “does not eliminate the phosphorylation of BAD”.

B2: BAD S136A: mutant of shorter murine BAD, serine corresponding to Ser136 substituted with alanine; HA- or GST-tagged (protein, UniProt Q61337 1-204, looked up, variant S136A)
Bcl2-associated agonist of …: MGTPKQPSLAPAHALGLRKSDPGIRSLGSDAGGRRWRPAAQSMFQIPEFEPSEQEDASATDRGLGPSLTEDQPGPYLAPGLLGSNIHQQGRAATNSHHGGAGAMETRSRHSSYPAGTEEDEGMEEELSPFRGRSRAAPPNLWAAQRYGRELRRMSDEFEGSFKGLPRPKSAGTATQMRQSAGWTRIIQSWWDRNLGKGGSTPSQ
modifications: HA or GST tag
notes: mutant of shorter murine BAD, serine corresponding to Ser136 substituted with alanine; HA- or GST-tagged
With B2, the “band-shift (phosphorylation) of expressed BAD construct in response to L-epinephrine” value in experiment [2] was “significant band-shift”. In experiment [3], the “effect of expressed BAD mutant on cellular survival / cell death” value is on record as “next greatest effect”.

B3: BAD S155D: BAD mutant, Ser155 replaced with aspartic acid to mimic the negatively charged phospho-Ser155 residue (protein, UniProt Q61337 1-204, looked up, variant S155D)
Bcl2-associated agonist of …: MGTPKQPSLAPAHALGLRKSDPGIRSLGSDAGGRRWRPAAQSMFQIPEFEPSEQEDASATDRGLGPSLTEDQPGPYLAPGLLGSNIHQQGRAATNSHHGGAGAMETRSRHSSYPAGTEEDEGMEEELSPFRGRSRSAPPNLWAAQRYGRELRRMDDEFEGSFKGLPRPKSAGTATQMRQSAGWTRIIQSWWDRNLGKGGSTPSQ
Take B3: the pro-apoptotic activity result in experiment [4] is “no pro-apoptotic activity”.
